# Laboratory results taken from the DeepSol protein solubility set.
# Experiment: soluble on expression in E. coli; label from the status in PepcDB or PDB records
row,Sequence,soluble on expression in E. coli
1,MVDPQLDGPQLAALAAVVELGSFDAAAERLHVTPSAVSQRIKSLEQQVGQVLVVREKPCRATTAGIPLLRLAAQTALLESEALAEMGGNASLKRTRITIAVNADSMATWFSAVFDGLGDVLLDVRIEDQDHSARLLREGVAMGAVTTERNPVPGCRVHPLGEMRYLPVASRPFVQRHLSDGFTAAAAAKAPSLAWNRDDGLQDMLVRKAFRRAITRPTHFVPTTEGFTAAARAGLGWGMFPEKLAASPLADGSFVRVCDIHLDVPLYWQCWKLDSPIIARITDTVRAAASGLYRGQQRRRRPG,soluble
2,MSDVENASLPPAIFIMGPTASGKTALAMTLREYLPVELISVDSALIYKDMDIGTAKPSADELARAPHRLIDILDPTESYSAADFRRDALREMADITAAGRIPLLVGGTMLYFKALLEGLSPLPPADAAVRQRIEEQAKEIGWEAMHRQLSEIDPTAAIRIHPNDPQRLSRALEVFFISGNTLTELTKTSGDALPYQVHQFAIAPAMRELLHQRIEQRFHQMLAAGFETEARALFARHDLHTDMPSIRCVGYRQMWSYLSGEIDYDEMVYRGVCATRQLAKRQMTWLRGWDDVCWLDSENPTEALDKVIQVVSALEHHHHHH,soluble
3,MSLAETFWVDVQRAEGRPLNLELIAPLSVGSKSVEEVENVAIRVELTNGCVGWGEVPVFPSVTAVNHTVALAKAMEACEFLSCSSPMVLSLVLSEIGGILPGPELASVRAGVEMALIDAVANSIDVPLWRLFGGVANTLTTGVTLPTVFPAEAYSQGASKYCQSGFRTFKLKIGKNTSAEIKALQAIQAAHPLCSLILDANEAYTCQEAIEILQKLYDSGITPAVLEQPVHRSDWKGLGEVSNFAREKKYGISVAVDETCQSLIEVRRVIKENLADAINIKLAKFGVMGALEIIELARESGVKLMISGTVESRLATGFAAHLAAGLGCFKSVVLDMPFLLSEDPVICGYEASGPVYKFLNVRGQGGFLKWDFSSWEGHHHHHH,soluble
4,MGYIEELRKIVGTRPLILAGVGVAVIDDYGRILLQKRRDGLWGVPGGLLELGESTEEAARREVLEETGLEIGELELIDVFSGQKYFVRLPNGDQYYPVTIVYCTRDIRGGELGEDGKESLEVKFFFLHELPNELSPLFQDLVEHYFGS,soluble
5,MSLALSTEQKTKMWAMLNQTRGQIGLTAYKDYIFGILFYKYLSEKATHWLNGVLRGENWENVYSQDSVKALNYMKKNLGYAIQPNEFFVDWKKAIDTDRFNIGMMTDTFTHFNQQIAFEAKNDFEGIFDGMRFDSADLGANAQARASVMISMIELLSSPEFDLSGSNDTVSDIYEYLVAQFATVLASDMGQYYTPKEISNVMARILTFGREDMEKFSIFDPTVGSGSLLLTTASYMKNSGRRGVIKYYGQEKDATPYRLSRMNLMMHGIEYNDININHADTLESDWPDGVVDGKDTPRMFDAVMANPPYSAHWNNKDREDDPRWREYGVSPKTKADYAFLLHCLYHLEDNGRMAIILPHGVLFRGASEGRIRKALIDKHQIEAIIGFPDKLFLNTSIPVCVVILRKNRIESDILFVDASKGFEKIKKQNNLRSEDVEKIVDTVINRKEIEKYSHVATLDEIKENDYNLNIPRYVDTFEEEEAIDLVALGNEMVTLNADIKKAETDFLGLLDELAVTPDTKEIIEATKAVFREGHHHHHH,soluble
6,MTSLTNAVFKRYLAVTPSAHQALKTRIKKKSSSFDKFFPQQSNSRKKQWETLNEDKASWFKRKYAHVHAREQDRAADPYGKKKAHVEKLKEIKNQAKLNQKSHKSKFQNKDIALKLMNDNPIFEYVYGTNSVYAALLNPSRNCHSRLLYHGTIPSKFLQIVDELKVTTELVDKHRLNLLTNYGVHNNIALETKPLQPVEIAYLGDMDTSSAALSIHELGFNNENIPHELPYGTKTDAKKFPLGLYLDEITDPHNIGAIIRSAYFLGVDFIVMSRRNCSPLTPVVSKTSSGALELLPIFYVDKPLEFFTKSQEMGGWTFITSHLANATSEKYTVGKTISMHDLNGLCNELPVVLVVGNESQGVRTNLKMRSDFFVEIPFGGIEKGNRAPEPIVDSLNVSVATALLIDNILTCK,soluble
7,MKKWWLAAVVAMIAVGGCAKEETEQKQSLQGANLLRTQTSGTAKHAELNQGPAERAASYLRGRDDVRDVVAVNSEDRLLIAYQIPHMKRWSRKQIEKDIDQKLRDLFPGYDVVSSSDLKIFWKTKELKANMDNRRWDERKVNREIRRIEKLSKEQT,not soluble
8,MTGRPEDSVIDIYQRHGAAWAKLRGDRLAEGGWLDRFCELLPATASVLDIGCGSGLPIARELVRRGFDVTGVDGASTMLALFRRNLPGTPAHLADMRELALGRRFDGLLAWDSFFHLSPADQRAMFRRFQAHAAAGAALMFTSGPAEGSAIGELAGDRLYHGSLGSDDYRALLDASGFEGVDHIVEDPTCGYRTIWLARQRRLEHHHHHH,not soluble
